Earlier results as cited in PMC7448383.

Biological target: GST (Schistosoma japonicum) [GST: P08515]

GST, sequence (P08515 2-218): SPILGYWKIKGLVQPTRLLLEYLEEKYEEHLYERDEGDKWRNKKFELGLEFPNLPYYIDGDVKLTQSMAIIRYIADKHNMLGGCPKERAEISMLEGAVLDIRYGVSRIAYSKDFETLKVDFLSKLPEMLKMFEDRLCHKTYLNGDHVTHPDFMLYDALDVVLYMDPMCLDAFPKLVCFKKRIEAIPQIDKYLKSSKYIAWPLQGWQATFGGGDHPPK

Substance: GST (from UniProt P08515)
- Kd: 340 nM
